Target: the molecule itself
Assay: solid state NMR

B1: His-tagged TDP-43-LC (low complexity domain of the TAR DNA-binding protein 43, residues 262-414) (domain or fragment)
chain: PKHNSNRQLERSGRFGGNPGGFGNQGGFGNSRGGGAGLGNNQGSNMGGGMNFGAFSINPAMMAAAQAALQSSWGMMGMLASQQNQSGPSGNNQNQGNMQREPNQAFGSGNNSYSGSNSGAAIGWGSASNAGSGSGFNGGFGSSMDSKSSGWGM
binding result: binds
